The source of these data is paper PMC8643277.

Data set [1] concerns the target T1, GFP-NLRP6 monomer (Homo sapiens, UniProt P59044 1-892).
T1 sequence: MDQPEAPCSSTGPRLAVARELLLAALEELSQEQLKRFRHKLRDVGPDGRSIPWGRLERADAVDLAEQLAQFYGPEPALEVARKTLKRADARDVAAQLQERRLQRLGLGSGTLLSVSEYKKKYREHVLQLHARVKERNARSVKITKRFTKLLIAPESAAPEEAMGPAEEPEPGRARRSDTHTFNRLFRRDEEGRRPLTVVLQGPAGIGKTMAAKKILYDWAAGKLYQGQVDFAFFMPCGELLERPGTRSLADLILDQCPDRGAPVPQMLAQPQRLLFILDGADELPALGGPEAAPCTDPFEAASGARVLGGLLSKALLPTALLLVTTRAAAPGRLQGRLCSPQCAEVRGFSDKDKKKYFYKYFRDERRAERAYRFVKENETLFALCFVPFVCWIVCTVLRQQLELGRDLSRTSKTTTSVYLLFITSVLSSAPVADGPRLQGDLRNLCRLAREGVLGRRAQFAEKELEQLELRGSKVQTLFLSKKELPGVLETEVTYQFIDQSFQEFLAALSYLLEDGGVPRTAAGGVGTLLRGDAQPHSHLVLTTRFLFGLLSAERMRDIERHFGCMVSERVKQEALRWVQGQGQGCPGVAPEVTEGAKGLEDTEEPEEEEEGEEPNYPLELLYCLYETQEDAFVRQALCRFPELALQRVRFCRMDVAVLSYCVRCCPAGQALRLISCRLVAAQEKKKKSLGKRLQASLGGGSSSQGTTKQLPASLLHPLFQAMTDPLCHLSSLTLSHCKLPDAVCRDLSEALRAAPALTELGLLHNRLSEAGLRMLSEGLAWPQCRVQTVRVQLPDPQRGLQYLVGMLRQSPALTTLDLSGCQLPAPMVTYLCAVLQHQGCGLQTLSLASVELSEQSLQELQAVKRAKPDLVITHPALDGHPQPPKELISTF
Kind of data set: MST.

Data set [2] addresses MBP-NLRP3 deltaPYD (UniProt Q96P20 134-1034). Kind of data set: EMSA. In general terms: In EMSA bound probe runs differently from free probe, usually more slowly.

The Kd is the constant that tells how readily two partners part at equilibrium. Read a high Kd as a looser complex.

Chain of MBP-NLRP3 deltaPYD (Q96P20 134-1034, stated change not applied): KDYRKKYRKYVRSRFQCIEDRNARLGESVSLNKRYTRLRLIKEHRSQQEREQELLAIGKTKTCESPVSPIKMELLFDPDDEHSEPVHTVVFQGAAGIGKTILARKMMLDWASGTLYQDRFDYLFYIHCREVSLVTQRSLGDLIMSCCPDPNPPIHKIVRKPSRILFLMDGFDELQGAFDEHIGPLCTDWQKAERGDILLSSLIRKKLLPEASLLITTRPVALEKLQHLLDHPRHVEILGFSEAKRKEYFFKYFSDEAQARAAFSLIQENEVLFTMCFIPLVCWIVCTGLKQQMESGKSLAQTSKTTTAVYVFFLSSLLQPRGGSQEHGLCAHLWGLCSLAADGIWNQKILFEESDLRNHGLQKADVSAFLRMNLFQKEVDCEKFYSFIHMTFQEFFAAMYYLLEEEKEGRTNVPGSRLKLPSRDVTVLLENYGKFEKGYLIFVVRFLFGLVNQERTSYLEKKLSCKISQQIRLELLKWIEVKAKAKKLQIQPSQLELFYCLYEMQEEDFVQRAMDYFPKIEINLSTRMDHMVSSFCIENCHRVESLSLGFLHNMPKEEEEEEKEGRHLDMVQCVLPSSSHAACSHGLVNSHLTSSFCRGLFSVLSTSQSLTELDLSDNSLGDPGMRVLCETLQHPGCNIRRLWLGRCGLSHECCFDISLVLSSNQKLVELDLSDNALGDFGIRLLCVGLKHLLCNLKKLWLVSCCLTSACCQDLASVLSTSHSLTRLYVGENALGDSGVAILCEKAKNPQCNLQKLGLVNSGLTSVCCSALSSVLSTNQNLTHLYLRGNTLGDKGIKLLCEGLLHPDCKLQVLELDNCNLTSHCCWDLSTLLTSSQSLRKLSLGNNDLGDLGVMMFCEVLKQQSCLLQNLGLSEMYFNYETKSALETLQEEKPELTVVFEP

B1: 20-bp dsRNA (dsRNA)
RNA 1: GACCUUCUGAUCAGAAGGUC
RNA 2: GACCUUCUGAUCAGAAGGUC
On to B1, for which, in data set [1], the Kd was around 1200 nM. In data set [2], the binding result is “no binding”.
